The series has as its system Escherichia coli TOP10. Kind of series: shrunken log2 fold change of peptide-encoding DNA abundance (4.5 h post-induction vs induction); higher = less antimicrobial activity (less host growth inhibition). The conditions noted are these: time post-induction: 4.5 h; library: site-saturation at positions 5, 18, 19, 20.
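Note: peptides expressed intracellularly from a pBAD plasmid library in pooled LB shake-flask culture, induced with 0.3% L-arabinose, DNA abundance read by NGS, three biological replicates, DESeq2 with apeglm shrinkage.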

On to RRIRDRPPRLPRPRPRPAEDPRP, for which the “shrunken log2 fold change” value is -0.017. The same measure for RRIRNRPPRLPRPRPRPFEMPRP: 0.0463.

With RRIRDRPPRLPRPRPRPITYPRP, the “shrunken log2 fold change” value was determined as 0.024. The same measure for RRIRSRPPRLPRPRPRPSRTPRP: 0.822. In the case of RRIRGRPPRLPRPRPRPNDAPRP, the “shrunken log2 fold change” value worked out at 0.0548. The same measure for RRIRYRPPRLPRPRPRPKPEPRP: -0.0857; for RRIRDRPPRLPRPRPRPDCIPRP: 0.438; for RRIRSRPPRLPRPRPRPVDYPRP: -0.268.

In the case of RRIRVRPPRLPRPRPRPCYWPRP, the “shrunken log2 fold change” value was -0.0621. The figure for RRIRQRPPRLPRPRPRPVTQPRP is -0.378; for RRIRFRPPRLPRPRPRPIADPRP it is -0.0956; for RRIRTRPPRLPRPRPRPCEYPRP it is -0.0254. The same measure for RRIRIRPPRLPRPRPRPNMAPRP: -0.344. As to RRIRARPPRLPRPRPRPYPMPRP, the “shrunken log2 fold change” value is 0.019.

Consider RRIRKRPPRLPRPRPRPTIAPRP, for which the “shrunken log2 fold change” value was found to be 0.541.

Regarding RRIRPRPPRLPRPRPRPIDEPRP, the “shrunken log2 fold change” value was -0.0401. RRIRARPPRLPRPRPRPQMDPRP: the “shrunken log2 fold change” value was found to be 0.099. The same measure for RRIRLRPPRLPRPRPRPPCLPRP: 0.0124; for RRIRIRPPRLPRPRPRPHNHPRP: -0.93; for RRIRDRPPRLPRPRPRPWATPRP: 0.0691. The figure for RRIRVRPPRLPRPRPRPPIFPRP is -0.067; for RRIRARPPRLPRPRPRPTEWPRP it is 0.483. For the sequence RRIRFRPPRLPRPRPRPRHHPRP, the “shrunken log2 fold change” value was -0.116. The figure for RRIRYRPPRLPRPRPRPDPWPRP is -0.26; for RRIRERPPRLPRPRPRPFSFPRP it is 0.122; for RRIRTRPPRLPRPRPRPHPTPRP it is 0.106. The figure for RRIRDRPPRLPRPRPRPFCHPRP is -0.00713; for RRIRMRPPRLPRPRPRPFCDPRP it is 0.179. The figure for RRIRRRPPRLPRPRPRPKKHPRP is 0.197.

Consider RRIRFRPPRLPRPRPRPPVCPRP, for which the “shrunken log2 fold change” value was -0.0141. The figure for RRIRVRPPRLPRPRPRPACGPRP is 0.122. The figure for RRIRCRPPRLPRPRPRPYMNPRP is -0.99; for RRIRMRPPRLPRPRPRPDKGPRP it is -0.0141. Turning to RRIRRRPPRLPRPRPRPSSQPRP, the “shrunken log2 fold change” value is -0.25. The same measure for RRIRKRPPRLPRPRPRPVKNPRP: 0.00783. Consider RRIRWRPPRLPRPRPRPEVDPRP, for which the “shrunken log2 fold change” value is 1.87. Turning to RRIRCRPPRLPRPRPRPRGLPRP, the “shrunken log2 fold change” value came out at 0.331. The figure for RRIRVRPPRLPRPRPRPYNAPRP is -0.521; for RRIRRRPPRLPRPRPRPILEPRP it is 0.0696; for RRIRFRPPRLPRPRPRPTKNPRP it is -0.0239. As for RRIRIRPPRLPRPRPRPWLEPRP, the “shrunken log2 fold change” value was -0.293. The figure for RRIRRRPPRLPRPRPRPVKQPRP is -0.0104.

Consider RRIRHRPPRLPRPRPRPKSHPRP, for which the “shrunken log2 fold change” value came out at 0.77. The same measure for RRIRYRPPRLPRPRPRPWDRPRP: -0.103; for RRIRKRPPRLPRPRPRPRNAPRP: 0.57; for RRIRPRPPRLPRPRPRPPKMPRP: 0.401. Turning to RRIRARPPRLPRPRPRPNPAPRP, the “shrunken log2 fold change” value came out at 0.796. Take RRIRDRPPRLPRPRPRPLTDPRP: the “shrunken log2 fold change” value was 0.0638. The same measure for RRIRGRPPRLPRPRPRPVNTPRP: 0.0713; for RRIRQRPPRLPRPRPRPTGRPRP: 0.146.

The record behind these values is the supplement of paper PMC9112550, “Optimization of the antimicrobial peptide Bac7 by deep mutational scanning” (BMC Biology, 2022).
